Among the data in article PMC10404681, “Intrinsic catalytic properties of histone H3 lysine-9 methyltransferases preserve monomethylation levels under low S-adenosylmethionine” (The Journal of Biological Chemistry, 2023) are Km, kcat and kcat/Km values, retold here.

The term Km denotes the concentration of substrate that gives half-maximal velocity. For orientation: kcat means the number of substrate molecules converted per active site and unit of time at saturation. The term kcat/Km denotes the second-order rate constant that governs catalysis at low substrate concentration.

Substrate in series [1]: C[S+](CC[C@H](N)C(=O)[O-])C[C@H]1O[C@@H](n2cnc3c(N)ncnc32)[C@H](O)[C@@H]1O
Put plainly: Radiometric EZ-tip methyltransferase assay, steady-state kinetics, EHMT2. The note with it: other: SAM varied 0.1–100 μM, EHMT2 25 nM, pH 7.9, 30 °C, 20 min, n = 3, SD. In kind it is biochemical, H. sapiens.

Substrate in series [2]: C[S+](CC[C@H](N)C(=O)[O-])C[C@H]1O[C@@H](n2cnc3c(N)ncnc32)[C@H](O)[C@@H]1O
Description: Radiometric EZ-tip methyltransferase assay, steady-state kinetics, SUV39H1. Type of series: biochemical. The conditions noted are these: other: SAM varied 0.1–100 μM, SUV39H1 100 nM, pH 7.9, 30 °C, 20 min, n = 3, SD.

Substrate in series [3]: C[S+](CC[C@H](N)C(=O)[O-])C[C@H]1O[C@@H](n2cnc3c(N)ncnc32)[C@H](O)[C@@H]1O
Description: Radiometric EZ-tip methyltransferase assay, steady-state kinetics, EHMT1. In kind it is biochemical, H. sapiens. The conditions noted are these: other: SAM varied 0.1–100 μM, EHMT1 25 nM, pH 7.9, 30 °C, 20 min, n = 3, SD.

Substrate in series [4]: C[S+](CC[C@H](N)C(=O)[O-])C[C@H]1O[C@@H](n2cnc3c(N)ncnc32)[C@H](O)[C@@H]1O
Put plainly: Radiometric EZ-tip methyltransferase assay, steady-state kinetics, SUV39H2. Type of series: biochemical, H. sapiens. The conditions noted are these: other: SAM varied 0.1–100 μM, SUV39H2 25 nM, pH 7.9, 30 °C, 20 min, n = 3, SD.

The mark [5] stands for this setting: fixed H3K9me1 peptide H3(1–17) 50 μM.
The mark [6] stands for this setting: fixed H3K9me2 peptide H3(1–17) 50 μM.
Setting [7] is: fixed H3K9un peptide H3(1–17) 50 μM.

B1: EHMT2 catalytic domain (Homo sapiens) (protein)
chain: NRAIRTEKIICRDVARGYENVPIPCVNGVDGEPCPEDYKYISENCETSTMNIDRNITHLQHCTCVDDCSSSNCLCGQLSIRCWYDKDGRLLQEFNKIEPPLIFECNQACSCWRNCKNRVVQSGIKVRLQLYRTAKMGWGVRALQTIPQGTFICEYVGELISDAEADVREDDSYLFDLDNKDGEVYCIDARYYGNISRFINHLCDPNIIPVRVFMLHQDLRFPRIAFFSSRDIRTGEELGFDYGDRFWDIKSKYFTCQCGSEKCKHSAEAIALEQSRLARLD
notes: EHMT2 = 913 to 1193; made in house; host or cells: Rosetta E. coli (plasmid from the laboratory of Peter W. Lewis)
For the protein B1, in series [1] (setting [5]), the Km was found to be 16.80 ± 2.69 µM, the kcat came to 0.0358 ± 0.00383 s⁻¹ and the catalytic efficiency (kcat/Km) stood at 2170 ± 167 M⁻¹ s⁻¹. Moreover, in series [1] (setting [6]), the Michaelis-Menten constant (Km) was found to be 6.10 ± 1.0 µM, the turnover number (kcat) was 0.0175 ± 0.00117 s⁻¹ and the kcat/Km is 2830 ± 500 M⁻¹ s⁻¹. Moreover, in series [1] (setting [7]), the Km amounted to 19.21 ± 2.00 µM, the kcat came out at 0.127 ± 0.00183 s⁻¹ and the kcat/Km was found to be 6670 ± 667 M⁻¹ s⁻¹.

B2: SUV39H1 (Homo sapiens) (protein)
chain: MAENLKGCSVCCKSSWNQLQDLCRLAKLSCPALGISKRNLYDFEVEYLCDYKKIREQEYYLVKWRGYPDSESTWEPRQNLKCVRILKQFHKDLERELLRRHHRSKTPRHLDPSLANYLVQKAKQRRALRRWEQELNAKRSHLGRITVENEVDLDGPPRAFVYINEYRVGEGITLNQVAVGCECQDCLWAPTGGCCPGASLHKFAYNDQGQVRLRAGLPIYECNSRCRCGYDCPNRVVQKGIRYDLCIFRTDDGRGWGVRTLEKIRKNSFVMEYVGEIITSEEAERRGQIYDRQGATYLFDLDYVEDVYTVDAAYYGNISHFVNHSCDPNLQVYNVFIDNLDERLPRIAFFATRTIRAGEELTFDYNMQVDPVDMESTRMDSNFGLAGLPGSPKKRVRIECKCGTESCRKYLF
notes: made in house; host or cells: Rosetta E. coli (plasmid generated for this study)
With B2, in series [2] (setting [5]), the Km came out at 11.78 ± 3.85 µM, the kcat was 0.005 ± 0.000833 s⁻¹ and the kcat/Km came out at 500 ± 167 M⁻¹ s⁻¹. In series [2] (setting [6]), the Michaelis-Menten constant (Km) turned out to be 3.60 ± 1.72 µM, the catalytic constant (kcat) was found to be 0.0005 ± 0.000167 s⁻¹ and the kcat/Km amounted to 167 ± 50 M⁻¹ s⁻¹. In series [2] (setting [7]), the Km was determined as 4.52 ± 0.49 µM, the catalytic constant (kcat) was found to be 0.00717 ± 0.000667 s⁻¹ and the catalytic efficiency (kcat/Km) is 1670 ± 333 M⁻¹ s⁻¹.

B3: EHMT1 catalytic domain (Homo sapiens) (protein)
chain: NSQVWSALQMSKALQDSAPDRPSPVERIVSRDIARGYERIPIPCVNAVDSEPCPSNYKYVSQNCVTSPMNIDRNITHLQYCVCIDDCSSSNCMCGQLSMRCWYDKDGRLLPEFNMAEPPLIFECNHACSCWRNCRNRVVQNGLRARLQLYRTRDMGWGVRSLQDIPPGTFVCEYVGELISDSEADVREEDSYLFDLDNKDGEVYCIDARFYGNVSRFINHHCEPNLVPVRVFMAHQDLRFPRIAFFSTRLIEAGEQLGFDYGERFWDIKGKLFSCRCGSPKCRHS
notes: EHMT1 = 982 to 1266; host or cells: Rosetta E. coli
As for B3, the Km in series [3] (setting [5]) is 6.84 ± 1.81 µM; in series [3] (setting [6]) it was 2.21 ± 0.65 µM; in series [3] (setting [7]) it was 13.51 ± 4.95 µM. Also, the kcat in series [3] (setting [5]) stood at 0.0335 ± 0.0025 s⁻¹; in series [3] (setting [6]) it was 0.0112 ± 0.000333 s⁻¹; in series [3] (setting [7]), 0.211 ± 0.0108 s⁻¹. Also, the catalytic efficiency (kcat/Km) was determined as 5000 ± 833 M⁻¹ s⁻¹ in series [3] (setting [5]), 5330 ± 1330 M⁻¹ s⁻¹ in series [3] (setting [6]) and 16800 ± 4500 M⁻¹ s⁻¹ in series [3] (setting [7]).

B4: SUV39H2 catalytic domain (Homo sapiens) (protein)
chain: LEGPPSDFYYINEYKPAPGISLVNEATFGCSCTDCFFQKCCPAEAGVLLAYNKNQQIKIPPGTPIYECNSRCQCGPDCPNRIVQKGTQYSLCIFRTSNGRGWGVKTLVKIKRMSFVMEYVGEVITSEEAERRGQFYDNKGITYLFDLDYESDEFTVDAARYGNVSHFVNHSCDPNLQVFNVFIDNLDTRLPRIALFSTRTINAGEELTFDYQMKGSGDISSDSIDHSPAKKRVRTVCKCGAVTCRGYLN
notes: host or cells: Rosetta E. coli
B4: the Km worked out at 9.85 ± 1.21 µM in series [4] (setting [5]), 8.18 ± 3.14 µM in series [4] (setting [6]) and 4.70 ± 0.69 µM in series [4] (setting [7]). Also, the kcat stood at 0.059 ± 0.00383 s⁻¹ in series [4] (setting [5]), 0.0703 ± 0.00583 s⁻¹ in series [4] (setting [6]) and 0.0668 ± 0.00567 s⁻¹ in series [4] (setting [7]). Besides, the catalytic efficiency (kcat/Km) in series [4] (setting [5]) was found to be 6000 ± 500 M⁻¹ s⁻¹; in series [4] (setting [6]), 9170 ± 2500 M⁻¹ s⁻¹; in series [4] (setting [7]) it was 14300 ± 1330 M⁻¹ s⁻¹.
